Assay results: patent US20100015126A1, “Methods of Binding of Cross-Beta Structures By Chaperones” (priority 2006, published 2010)

B1: complement C4a (protein, UniProt P0C0L4 680-756, looked up)
C4a anaphylatoxin: NVNFQKAINEKLGQYASPTAKRCCQDGVTRLPMMRSCEQRAARVQQPDCREPFLSCCQFAESLRKKSRDKGQAGLQR
modifications: C4a anaphylatoxin
B2: Galectin-3-binding protein precursor (protein)
chain: VNDGDMRLADGGATNQGRVEIFYRGQWGTVCDNLWDLTDASVVCRALGFENATQALGRAAFGQGSGPIMLDEVQCTGTEASLADCKSLGWLKSNCRHERDAGVVCTNETRSTHTLDLSRELSEALGQIFDSQRGCDLSISVNVQGEDALGFCGHTVILTANLEAQALWKEPGSNVTMSVDAECVPMVRDLLRYFYSRRIDITLSSVKCFHKLASAYGARQLQGYCASLFAILLPQDPSFQMPLDLYAYAVATGDALLEKLCLQFLAWNFEALTQAEAWPSVPTDLLQLLLPRSDLAVPSELALLKAVDTWSWGERASHEEVEGLVEKIRFPMMLPEELFELQFNLSLYWSHEALFQKKTLQALEFHTVPFQLLARYKGLNLTEDTYKPRIYTSPTWSAFVTDSSWSARKSQLVYQSRRGPLVKYSSDYFQAPSDYRYYPYQSFQTPQHPSFLFQDKRVSWSLVYLPTIQSCWNYGFSCSSDELPVLGLTKSGGSDRTIAYENKALMLCEGLFVADVTDFEGWKAAIPSALDTNSSKSTSSFPCPAGHFNGFRTVIRPFYLTNSSGVD
B3: Apolipoprotein A-IV precursor (protein)
chain: EVSADQVATVMWDYFSQLSNNAKEAVEHLQKSELTQQLNALFQDKLGEVNTYAGDLQKKLVPFATELHERLAKDSEKLKEEIGKELEELRARLLPHANEVSQKIGDNLRELQQRLEPYADQLRTQVSTQAEQLRRQLTPYAQRMERVLRENADSLQASLRPHADELKAKIDQNVEELKGRLTPYADEFKVKIDQTVEELRRSLAPYAQDTQEKLNHQLEGLTFQMKKNAEELKARISASAEELRQRLAPLAEDVRGNLRGNTEGLQKSLAELGGHLDQQVEEFRRRVEPYGENFNKALVQQMEQLRQKLGPHAGDVEGHLSFLEKDLRDKVNSFFSTFKEKESQDKTLSLPELEQQQEQQQEQQQEQVQMLAPLES
B4: IGHM protein, immunoglobulin heavy constant gamma 2 (protein)
chain: ASTKGPSVFPLAPCSRSTSESTAALGCLVKDYFPEPVTVSWNSGALTSGVHTFPAVLQSSGLYSLSSVVTVPSSNFGTQTYTCNVDHKPSNTKVDKTVERKCCVECPPCPAPPVAGPSVFLFPPKPKDTLMISRTPEVTCVVVDVSHEDPEVQFNWYVDGVEVHNAKTKPREEQFNSTFRVVSVLTVVHQDWLNGKEYKCKVSNKGLPAPIEKTISKTKGQPREPQVYTLPPSREEMTKNQVSLTCLVKGFYPSDISVEWESNGQPENNYKTTPPMLDSDGSFFLYSKLTVDKSRWQQGNVFSCSVMHEALHNHYTQKSLSLSPGK
B5: IGHM protein, immunoglobulin heavy chain mu (heavy chain disease protein) (protein)
chain: GSASAPTLFPLVSCENSPSDTSSVAVGCLAQDFLPDSITFSWKYKNNSDISSTRGFPSVLRGGKYAATSQVLLPSKDVMQGTDEHVVCKVQHPNGNKEKNVPLPVIAELPPKVSVFVPPRDGFFGNPRKSKLICQATGFSPRQIQVSWLREGKQVGSGVTTDQVQAEAKESGPTTYKVTSTLTIKESDWLGQSMFTCRVDHRGLTFQQNASSMCVPDQDTAIRVFAIPPSFASIFLTKSTKLTCLVTDLTTYDSVTISWTRQNGEAVKTHTNISESHPNATFSAVGEASICEDDWNSGERFTCTVTHTDLPSPLKQTISRPKGVALHRPDVYLLPPAREQLNLRESATITCLVTGFSPADVFVQWMQRGQPLSPEKYVTSAPMPEPQAPGRYFAHSILTVSEEEWNTGETYTCVVAHEALPNRVTERTVDKSTGKPTLYNVSLVMSDTAGTCY
B6: FLJ00385 protein (Fragment), immunoglobulin heavy constant mu (protein)
chain: B5 chain
B7: Histidine-rich glycoprotein precursor (protein)
chain: VSPTDCSAVEPEAEKALDLINKRRRDGYLFQLLRIADAHLDRVENTTVYYLVLDVQESDCSVLSRKYWNDCEPPDSRRPSEIVIGQCKVIATRHSHESQDLRVIDFNCTTSSVSSALANTKDSPVLIDFFEDTERYRKQANKALEKYKEENDDFASFRVDRIERVARVRGGEGTGYFVDFSVRNCPRHHFPRHPNVFGFCRADLFYDVEALDLESPKNLVINCEVFDPQEHENINGVPPHLGHPFHWGGHERSSTTKPPFKPHGSRDHHHPHKPHEHGPPPPPDERDHSHGPPLPQGPPPLLPMSCSSCQHATFGTNGAQRHSHNNNSSDLHPHKHHSHEQHPHGHHPHAHHPHEHDTHRQHPHGHHPHGHHPHGHHPHGHHPHGHHPHCHDFQDYGPCDPPPHNQGHCCHGHGPPPGHLRRRGPGKGPRPFHCRQIGSVYRLPPLRKGEVLPLPEANFPSFPLPHHKHPLKPDNQPFPQSVSESCPGKFKSGFPQVSMFFTHTFPK
B8: CDNA FLJ14473 fis, clone MAMMA1001080, highly similar to Homo sapiens SNC73 protein (SNC73) mRNA, immunoglobulin heavy constant alpha 1 (protein, UniProt P01876 1-398, looked up)
Immunoglobulin heavy constant …: ASPTSPKVFPLSLCSTQPDGNVVIACLVQGFFPQEPLSVTWSESGQGVTARNFPPSQDASGDLYTTSSQLTLPATQCLAGKSVTCHVKHYTNPSQDVTVPCPVPSTPPTPSPSTPPTPSPSCCHPRLSLHRPALEDLLLGSEANLTCTLTGLRDASGVTFTWTPSSGKSAVQGPPERDLCGCYSVSSVLPGCAEPWNHGKTFTCTAAYPESKTPLTATLSKSGNTFRPEVHLLPPPSEELALNELVTLTCLARGFSPKDVLVRWLQGSQELPREKYLTWASRQEPSQGTTTFAVTSILRVAAEDWKKGDTFSCMVGHEALPLAFTQKTIDRLADWQMPPPYVVLDLPQETLEEETPGANLWPTTITFLTLFLLSLFYSTALTVTSVRGPSGNREGPQY

What follows are molecules tested against T1, BiP-Sepharose (Homo sapiens, UniProt P11021) (assay: BiP-Sepharose extraction of proteins from patient plasma, serum, synovial fluid and mass-spectrometric identification). Details: compared to AL amyloidosis patient II.
T1 construct: The human BiP gene except the signal peptide encoding region was obtained from Geneart (Germany); linker […]; made in house; host or cells: HEK 293E cells, transient transfection, PABC674 vector; secreted into the medium
T1 sequence (P11021 19-654): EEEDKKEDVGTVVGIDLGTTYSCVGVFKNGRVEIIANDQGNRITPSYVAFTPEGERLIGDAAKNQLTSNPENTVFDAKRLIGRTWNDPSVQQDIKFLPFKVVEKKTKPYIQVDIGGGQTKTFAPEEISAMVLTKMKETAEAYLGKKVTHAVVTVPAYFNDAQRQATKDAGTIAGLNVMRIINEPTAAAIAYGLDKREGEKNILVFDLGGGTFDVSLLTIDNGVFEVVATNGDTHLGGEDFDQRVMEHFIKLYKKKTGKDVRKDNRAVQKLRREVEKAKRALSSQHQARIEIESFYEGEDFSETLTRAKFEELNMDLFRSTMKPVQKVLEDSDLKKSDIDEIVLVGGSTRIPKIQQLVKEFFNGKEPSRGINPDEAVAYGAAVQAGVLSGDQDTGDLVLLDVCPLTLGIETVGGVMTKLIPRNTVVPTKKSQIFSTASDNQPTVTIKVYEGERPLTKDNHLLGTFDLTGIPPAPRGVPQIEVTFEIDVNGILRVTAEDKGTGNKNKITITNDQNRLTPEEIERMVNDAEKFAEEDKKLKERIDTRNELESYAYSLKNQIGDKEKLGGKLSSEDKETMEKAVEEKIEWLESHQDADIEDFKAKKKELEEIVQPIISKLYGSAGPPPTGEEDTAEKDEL
Format: binding
Experimental: BiP was coated on CNBr-Sepharose (GE-Healthcare, Amersham Biosciences). Immobilization of BiP was performed essentially as described elsewhere in this application for NHS-Sepharose. CNBr-matrix was dissolved at 200 mg/ml in 1 mM HCl and treated the same as the NHS-matrix, except for an additional 5 minutes activation step in 1 mM HCl on a roller device before washing in this buffer. BiP was diluted in immobilization buffer (50 mM NaCl and 40 mM NaHCO3) to a concentration of 820 μg/ml. A total volume of 2 ml BiP solution (1640 μg BiP) was incubated with 360 mg beads. Negative control matrix was exposed to immobilization buffer, only. After overnight immobilization matrix was blocked with Tris and washed.
(§1) Six samples were incubated with the BiP-Sepharose, IgIV-Sepharose and the control-Sepharose: Normal pooled plasma, plasma of a patient I or of a patient II, with AL amyloidosis, serum of a patient III with RA (Rheumatoid Factor (RF) titer 682), control serum and synovial fluid of a patient IV with RA (RF titer 23). All samples were diluted 20× in HBS and applied to 200 μl beads in two volumes of 500 μl. One volume was incubated for 4 h at RT and supernatant was discarded after centrifugation (2 minutes at 1400 rpm). Subsequently, the second volume was applied to the same matrix and incubated overnight on a roller device at 4° C. […] To collect the eluates, the matrices were centrifuged and the two eluates were pooled for each sample.
(§2) Protein digests were desalted as described (Rappsilber et al., 2003), vacuum dried and dissolved in 2.5% formic acid.
(§3) For analysis of peptide mixtures, an Agilent 1100 HPLC system (Agilent Technologies) connected to a Thermo Finnigan LTQ-MS (Thermo Electron, Bremen, Germany) was used. Protein digests were injected on a trap column (Reprosil C18 RP (Dr Maisch, Germany), 20 mm×100 μm I.D.) at 5 μl/minute. Subsequently, the peptides were transferred with a split-reduced flow rate of 100 nL/minute solvent A (0.1 M acetic acid) on the analytical column (Reprosil C18 RP, 20 cm×50 μm I.D.). […] The column effluent was directly introduced into the ESI source of the mass spectrometer via a butt-connected nano-ESI emitter (New Objectives, Woburn, Mass.). The mass spectrometer was operated in the positive ion mode and parent ions were selected for fragmentation in data-dependent mode.
(§4) After mass spectrometric measurements, peak lists were generated using BioWorks software (Thermo Electron, Bremen, Germany). Protein identification was performed using Mascot software (www.matrixscience.com) by searching the IPIhuman database (version 3.24, downloaded from ftp://ftp.ebi.ac.uk/pub/databases/IPI/current) using the following settings: fully tryptic peptides, peptide tolerance 0.8 Da, MS/MS tolerance 0.9 Da, 1 missed cleavage allowed, carbamidomethyl (Cys) and oxidation (Met) as fixed and variable modification, respectively. The Scaffold software package (www.proteomesoftware.com) was used to parse the data and to filter peptides at a confidence level of 95%, allowing only protein identification with at least 2 peptides identified.

Specific binding to BiP-Sepharose from normal pooled plasma | Molecule
specifically bound | B1

Each molecule was assayed against T1, BiP-Sepharose (assay: Experiment 2: BiP-Sepharose extraction from six synovial fluid samples of RA patients and mass spectrometry). Details: Sample 1B; BiP-Sepharose eluate, synovial fluid of RA patient.
Format: binding
Experimental: as §1, §2, §3, §4
Those samples are listed below: • 1. […] One difference when compared to the protocol described above is that now with the twelve samples, elution buffer comprised 1 M NaCl. Again, a misfolded protein or a protein binding to misfolded protein is identified uniquely in the synovial fluid when no or a relatively very low number of fragments are detected in eluates of control-Sepharose.

# of unique peptides | Molecule
1 | B2
3 | B3
1 | B4
3 | B5
1 | B6
2 | B7
2 | B8

Same assay, conditions: Sample 2B; BiP-Sepharose eluate, synovial fluid of RA patient

# of unique peptides | Molecule
1 | B4
1 | B6
1 | B7

Same assay, conditions: Sample 3B; BiP-Sepharose eluate, synovial fluid of RA patient

# of unique peptides | Molecule
1 | B2
1 | B5
2 | B6
1 | B8

Same assay, conditions: Sample 5B; BiP-Sepharose eluate, synovial fluid of RA patient

# of unique peptides | Molecule
1 | B7
1 | B8
